Earlier results as cited in paper PMC3760146.

Target: Histone H4 K8ac peptide 1-12 (Homo sapiens) (UniProt P62805)
Experiment: NMR titration

In the case of P/CAF bromodomain (from UniProt Q92831), the Kd is listed as 346 µM.
